In publication doi:10.1101/2024.06.27.601040 (bioRxiv, 2024):

Molecular target: MVP3-5 (residues 102-274 of human MVP), wild type (human, UniProt Q14764 102-274)
Assay: SEC

Chain of MVP3-5 (residues 102-274 of human MVP), wild type (Q14764 102-274): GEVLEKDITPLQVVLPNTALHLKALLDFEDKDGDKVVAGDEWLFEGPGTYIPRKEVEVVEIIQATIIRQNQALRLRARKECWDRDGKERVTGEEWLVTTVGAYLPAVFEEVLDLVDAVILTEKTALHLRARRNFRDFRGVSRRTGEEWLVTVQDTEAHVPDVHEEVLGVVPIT

B1: MINT domain (residues 1562-1724 of human PARP4), wild type (domain or fragment)
chain: VCIQHWQDAVPWTELLSLQTEDGFWKLTPELGLILNLNTNGLHSFLKQKGIQSLGVKGRECLLDLIATMLVLQFIRTRLEKEGIVFKSLMKMDDASISRNIPWAFEAIKQASEWVRRTEGQYPSICPRLELGNDWDSATKQLLGLQPISTVSPLHRVLHYSQG
  binding result: binds
